# Reference: doi:10.1101/2022.05.07.491048
# pKd: −log10 of the molar value.
# Target: b-His6-BAK_(16-186) (UniProt Q16611)
# Assay: not given
# Sequence of UniProt Q16611 (Q16611 16-186): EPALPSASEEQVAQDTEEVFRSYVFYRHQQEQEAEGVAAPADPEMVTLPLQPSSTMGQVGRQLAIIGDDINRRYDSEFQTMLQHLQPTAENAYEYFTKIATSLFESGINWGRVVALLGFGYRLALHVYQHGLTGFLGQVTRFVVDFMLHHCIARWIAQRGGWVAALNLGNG
row,pKd,Substance
1,6.37,"BNIP5 BH3 peptide, 5-FAM labelled"

# Target: b-His6-BAK_(16-186) (UniProt Q16611)
# Assay: BLI
row,koff,Substance
1,0.16 s⁻¹,His6-SUMO-BNIP5 BH3 (peptide)

# Target: b-His6-BAK_(16-186) (UniProt Q16611)
# Assay: fluorescence polarisation
row,Substance,pKd
1,"TERT BH3 peptide, 5-FAM labelled",< 4.70
2,"SLC19A1 BH3 peptide, 5-FAM labelled",< 4.70
3,"NBEAL2 BH3 peptide, 5-FAM labelled",< 4.70
4,"SPNS1 BH3 peptide, 5-FAM labelled",< 4.70
5,"PXT1 BH3 peptide, 5-FAM labelled",4.96
6,"BNIP5 BH3 peptide, 5-FAM labelled",6.40
7,"CASP3 BH3 peptide, 5-FAM labelled",< 4.70

# Continued, values first:
row,pKd,Substance
1,< 4.70,"TRPM7 BH3 peptide, 5-FAM labelled"
2,< 4.70,"TRIM58 BH3 peptide, 5-FAM labelled"
